Test results: paper PMC9891371
Several values for one entry are separate records, joined by “and”; a condition that tells them apart may be missing. Identical values can stand only once.

Assays:
[1] = target: ZE-mi3 cage (His tag and ZE fused to the N-terminus of the designed protein cage mi3); assay: TEM
[2] = target: ZE-fused ferritin, N-terminal fusion (ZE-HF) cage (human); assay: TEM
[3] = target: ZE-fused ferritin, C-terminal fusion (HF-ZE) cage (human); assay: TEM + native gel or EMSA
[4] = target: ZE-mi3 cage (His tag and ZE fused to the N-terminus of the designed protein cage mi3); assay: native gel or EMSA
[5] = target: ZE-fused ferritin, N-terminal fusion (ZE-HF) cage (human); assay: native gel or EMSA
[6] = target: C-terminal ZR-fused ferritin (HF-ZR) cage, 15 residue linker (human); assay: negative-stain TEM

C-terminal ZR-fused ferritin (HF-ZR) cage, 15 residue linker (designed binder)
stoichiometry N (HF-ZR cages per mi3 cage) [1]: 12 | stoichiometry N (HF-ZR cages per ZE-HF cage) [2]: 4 and 6 | stoichiometry N (HF-ZR cages per HF-ZE cage) [3]: 1 and 3 | stoichiometry N (HF-ZR cages per ZE-mi3 cage) [4]: 12

GFP-ZR (ZR fusion to the GFP C-terminus) (designed binder)
stoichiometry N (GFPs per ferritin cage) [5]: 20 to 24

ZE-GFP (ZE-fused GFP) (designed binder)
stoichiometry N (GFPs observed per cage) [6]: 1 and 3
